B1: FGF18: Recombinant human FGF18 (PeproTech), an FGF receptor agonist added to the culture medium (protein, UniProt O76093 28-207, looked up)
Fibroblast growth factor 18: EENVDFRIHVENQTRARDDVSRKQLRLYQLYSRTSGKHIQVLGRRISARGEDGDKYAQLLVETDTFGSQVRIKGKETEFYLCMNRKGKLVGKPDGTSKECVFIEKVLENNYTALMSAKYSGWYVGFTKKGRPRKGPKTRENQQDVHFMKRYPKGQPELQKPFKYTTVTKRSRRIRPTHPA

What was measured:
[1] = tested on: human iPS cell line QHJI-derived cartilaginous particles; experiment: In vitro integration of paired cartilaginous particles in round-bottom 96-well plate, cultured with FGFR inhibitor; assay type: cell-based
Procedure: (§1) Two cartilaginous particles were put into a well of a round-bottom 96-well plate (see FIGS. 1A and 1B) and cultured under the conditions of 37° C. and 5% CO2 in chondrogenic medium (DMEM (Sigma) with 1% ITS, 1% FBS, 2 mM L-glutamine (Thermo), 1×10^−4 M non-essential amino acids (Thermo), 1 mM sodium pyruvate (Thermo), 50 U of penicillin, […] streptomycin, 50 μg/mL ascorbic acid (Nacalai), 10 ng/mL BMP2 (Peprotech), 10 ng/mL TGFβ1 (Peprotech), and 10 ng/mL GDF5 (PTT)). In total, 84 wells, each of which contained a pair of cartilaginous particles, were prepared. The wells were divided into 7 groups (12 pairs per group), and each was subjected to macroscopic and histological analyses at the predetermined time points ([…] after the start of the integration experiment). The medium was changed every day gently and carefully so as not to change the positions of the cartilaginous particles.
To further investigate the effects of FGF on the integration, an FGFR inhibitor, NVP-BGJ398 (ChemScene LLC), was used in the culture. NVP-BGJ398 was dissolved in DMSO to prepare a 50 μM stock solution. In total, 30 new pairs of cartilaginous particles were cultured under the conditions described in the above (3). Fifteen pairs were cultured in a medium supplemented with vehicle (0.3 μL of DMSO), and the other 15 pairs were cultured in a medium supplemented with 0.3 μL of the NVP-BGJ398 stock solution (final concentration: 50 nM). After 14 days of culture, the samples were subjected to histological analysis.
(§2) The pairs of cartilaginous particles were fixed with 4% paraformaldehyde, processed, and embedded in paraffin. 20 to 150 serial sections were prepared around the integrated portion of the sample so that the sections contain the most contact area between the paired cartilaginous particles (see FIG. 1C). Serial sections with the greatest contact portion were selected and used for further analysis. The sections were stained with hematoxylin-eosin and safranin O-fast green-iron hematoxylin and immunostained with a goat anti-type I collagen antibody (Souther Biotech) and an anti-type II collagen antibody (Thermo).
(§3) For statistical analysis, the degree of integration of cartilaginous particles at each time point was graded as follows: grade 0, no integration; grade 1, perichondrium-like membrane integration; grade 2, cartilage integration (Table 2). The grades are non-parametric data, and statistical analysis was performed using the Steel-Dwass test. All the samples were graded as 0 (no integration) on day 0 and graded as 2 (cartilage integration) on day 56.

[2] = tested on: human iPS cell line QHJI-derived cartilaginous particles; experiment: In vitro integration of paired cartilaginous particles in round-bottom 96-well plate, cultured with FGF18; assay type: cell-based; details: for Grade 0 No integration (number of pairs) / Grade 1 Integration by perichondrium-like membrane (number of pairs) / Grade2 Integration by cartilage (number of pairs): 15 pairs per group
Procedure: as §1
Recombinant human FGF18 (PeproTech) was dissolved in phosphate-buffered saline (PBS) to prepare a stock solution (100 μg/mL). In total, 90 pairs of cartilaginous particles were cultured under the conditions described in the above (3). One pair per well was cultured in 0.3 mL of medium. Forty-five pairs were cultured in a medium supplemented with vehicle (0.3 μL of PBS), and the other 45 pairs were cultured in a medium supplemented with 0.3 μL of the FGF18 stock solution (final concentration: 100 ng/mL). The 45 pairs in each treatment group were further separated into three equal-sized groups and subjected to histological analysis (3, 7, or 14 days after the start of the experiment).
as §2, §3

[3] = Day 14, NVP-BGJ398 50 nM, 15 pairs per group, P < 0.01 vs Vehicle (Steel-Dwass)
[4] = Day 14, FGF18 100 ng/mL, P < 0.01 vs Vehicle (Steel-Dwass)

Molecule | Grade 0 No integration (number of pairs) [1, 3] | Grade 1 Integration by perichondrium-like membrane (number of pairs) [1, 3] | Grade2 Integration by cartilage (number of pairs) [1, 3] | Pairs of cartilaginous particles that showed integration ([1]; Day 14, NVP-BGJ398 50 nM, 15 pairs, vehicle 11 out of 15) | Effect of addition to the medium on integration of cartilaginous particles ([1]; NVP-BGJ398 50 nM in medium) | Grade 0 No integration (number of pairs) ([2]; Day 3, FGF18 100 ng/mL) | Grade 1 Integration by perichondrium-like membrane (number of pairs) ([2]; Day 3, FGF18 100 ng/mL) | Grade2 Integration by cartilage (number of pairs) ([2]; Day 3, FGF18 100 ng/mL) | Grade 0 No integration (number of pairs) ([2]; Day 7, FGF18 100 ng/mL) | Grade 1 Integration by perichondrium-like membrane (number of pairs) ([2]; Day 7, FGF18 100 ng/mL) | Grade2 Integration by cartilage (number of pairs) ([2]; Day 7, FGF18 100 ng/mL) | Grade 0 No integration (number of pairs) [2, 4] | Grade 1 Integration by perichondrium-like membrane (number of pairs) [2, 4] | Grade2 Integration by cartilage (number of pairs) [2, 4] | Integration of treated cartilaginous particles (observation) ([2]; Day 14, FGF18 100 ng/mL, vehicle showed minimal integration) | Integration grade versus vehicle-treated pairs (statistics) ([2]; Day 14, Steel-Dwass test) | Effect of addition to the medium on integration of cartilaginous particles ([2]; FGF18 100 ng/mL in medium) | Histological finding in treated cartilaginous particles ([2]; FGF18 100 ng/mL, safranin O-fast green-iron hematoxylin sections)
CCN1CCN(c2ccc(Nc3cc(N(C)C(=O)Nc4c(Cl)c(OC)cc(OC)c4Cl)ncn3)cc2)CC1 [NVP-BGJ398] | 15 | 0 | 0 | no pairs | inhibited the integration of cartilaginous particles |  |  |  |  |  |  |  |  |  |  |  |  | 
B1 |  |  |  |  |  | 12 | 3 | 0 | 10 | 5 | 0 | 1 | 14 | 0 | substantial integration | Significant difference | accelerated the integration of cartilaginous particles | thick connection of the perichondrium-like membranes

Reference: patent US20210299331A1, “PLURIPOTENT STEM CELL-DERIVED PLATE-SHAPED CARTILAGE AND METHOD FOR PRODUCING THE SAME” (KYOTO UNIVERSITY, priority 2018, published 2021)
